The nature of data set [1]: Biodistribution and whole body retention of 153Gd-labeled dendrimer-1B4M-Gd conjugates. It is filed as in vivo, nude mice. The settings on record: for cleared from the body within 15 min after injection / excretion from the body, rank among conjugates: mouse, in vivo. As to the method: Radioactive dendrimer conjugates used for biodistribution studies were prepared as follows. ^153GdCl3 containing no other stable isotope of Gd (III) was purchased from NEN DuPont (Boston, Mass.). Approximately 1,500 μg of each dendrimer (containing 2 μmol of 1B4M) was reacted with 1.11 MBq (30 μCi) of ^153Gd citrate (46 pmol) in 0.3 M citrate buffer at pH 5 for 30 min at room temperature. The preparation was then mixed with a 3-fold molar excess of non-radiolabeled Gd(III) citrate (6 μmol) to conjugate 1B4M to fully saturate the chelating groups with Gd(III). This reaction was incubated for 30 min before the addition of ethylenediaminetetraacetic acid (EDTA) and subsequent column purification. To remove any non-incorporated free metal, 10 μl of 0.5 M EDTA (Sigma, St. Louis, Mo.) was added to minimized formation of Gd(OH)3 precipitate. The product was purified using a PD-10 column (Pharmacia, Uppsala, Sweden), eluting with PBS, (pH 7.4). The radio-purity of each preparation was analyzed by size-exclusion HPLC using a TSK G3000SW column (TosoHaas, Philadelphia, Pa.; 0.1 M PBS; 0.01 M KCl; pH 7.4; 1 ml/min). DTPA (Sigma) was also labeled with ^153Gd in 0.3-M citrate buffer for 30 min at room temperature. The radiolabeling yields of all preparations ranged from 47% to 55%. The radio-purity of all preparations analyzed by size-exclusion HPLC was greater than 97%.
Seven groups of nude mice (n=4 in each group) were injected with 37 kBq (1 μCi)/200 μl of ^153Gd-labeled dendrimer-1B4M-Gd conjugates or ^153Gd-DTPA. The injected samples were added to non-radioactive preparations and the total gadolinium dose was adjusted to 0.02 mmol Gd/kg, 20% of the dose of Gd-[DTPA]-dimeglumine routinely used clinically. The mice were sacrificed 15 min after the injection of the ^153Gd-labeled preparations and biodistribution studies were performed. The data were expressed as the percentage of the injected dose per gram (% ID/g) of tissue. The carcasses of the mice were also counted to calculate the whole body retention (% ID).

For a further data set, the system named is kidneys of mice. Description: Serial dynamic high-resolution MR imaging of the kidneys of mice. In kind it is in vivo. The procedure: The mice were anesthetized with 1.15 mg of sodium pentobarbital (Dainabot, Osaka, Japan) and placed in the center of the coils. The fast spoiled gradient echo technique ([…] 71; flip angle 30°; scan time 3'07''; phase encoding steps 512×256; 2 number of excitations; slab thickness 16) with fat-suppression technique and serial 3D data acquisition was used to acquire images every 3.1 min from 0 (immediately after injection) to 12 min after injection of the contrast agents for all mice studied. The coronal images were reconstructed with 0.6-mm thick sections with a 0.3-mm overlap reconstruction. The field of view was 6×3 cm and the size of the matrix was 512×256. The reproducibility of the experiments (two mice in each group) was confirmed by repeating the experiments under the same conditions using a different 1.5-tesla superconductive MRI instrument (Signa Horizon, GE).

The conditions of data set [2]: in vivo; cited from earlier work.
The nature of data set [3]: Contrast-enhanced dynamic whole body 3D-micro-MRI of mice. It is filed as in vivo, nude mice. The settings on record: 0.03 mmol Gd/kg, all times up to 15 min. The procedure: To evaluate the whole body pharmacokinetics of the contrast agents, seven groups of 8-week-old female nude mice (n=4 in each group) (NCI, Frederick, Md.) were used to obtain contrast-enhanced dynamic 3D-micro-MR images. […] All images were obtained using the high-resolution wrist coil (GE) with a custom mouse holder using a clinical-grade 1.5-tesla superconductive magnet unit (Signa LX, General Electric Medical System, Milwaukee, Wis.). The mice were anesthetized with 1.15 mg of sodium pentobarbital (Dainabot, Osaka, Japan) and placed in the center of the coils. The fast spoiled gradient echo technique ([…] 19.4/4.2; flip angle 60°; scan time 1'40''; phase encoding steps 256×256; 3 number of excitations; slab thickness 12) with chemical fat-suppression technique and serial 3D data acquisition was used to acquire images every 2 min from 0 (immediately after injection) to 14 min after injection of the contrast agents for all mice studies. The coronal images for dynamic MRI were reconstructed with 2-mm section thickness without gap reconstruction. In addition, slice data was processed into 3D images with the maximum intensity […] (MIP) method (Advantage Windows, General Electric Medical System).

A further data set relates to COX-2 knock-out mice. Description: Contrast-enhanced dynamic 3D-micro-MRI of mice with chronic renal failure. In kind it is in vivo. The settings on record: 0.03 mmol Gd/kg i.v., images over 14 min post-injection. As to the method: To determine if dendrimer-enhanced MR imaging according to the disclosure could detect chronic kidney failure and renal cysts, serial dynamic MR images of normal and 7 month old COX-2 knock-out mice (n=4) were obtained. The later mice have renal cysts and chronic renal failure. The contrast-enhanced dynamic MRI scans were obtained using the fast spoiled gradient echo technique (efgre3d; TR/TE 20.4/7.2; TI49; flip angle 30°; scan time 1′52″; phase encoding steps 512×256; 3 NEX; slab thickness 16) with fat-suppression technique following intravenous injection of 0.03 mmol Gd/kg G4-(1B4M-Gd)64. Serial multi-slice 3D data was obtained over a period of 14 min post-injection of the contrast agents for all mice studied. The width of the cortex and outer stripe of the outer medulla were measured. The combined width of the cortex and outer medulla measured by PAMAM-G4 enhanced MR imaging was much smaller in COX-2 knockout mice (left) than normal mice (right), and correlated with histological thickness (obtained at the time of sacrifice). […] These images show the thicker width of the cortex and outer medulla in the normal mice (FIG. 7a) in comparison to the COX-2 knockout mice (FIG. 7b). […] Thus, contrast-enhanced dynamic 3D-micro-MR imaging can be used to detect chronic renal failure and renal cysts.

For data set [4] the following is noted: mice; cited from earlier work.

On to `O=C([O-])CN(CCN(CC(=O)[O-])CC(=O)O)CCN(CC(=O)[O-])CC(=O)O.[153Gd+3]` [Gd-DTPA, reference compound], for which the “amount of 153Gd-labeled agent remaining in the blood” value in data set [1] (nude mice, 15 min after injection, 0.02 mmol Gd/kg) is 2.7±0.1 % ID/g.

Regarding `CNC[C@H](O)[C@@H](O)[C@H](O)[C@H](O)CO.CNC[C@H](O)[C@@H](O)[C@H](O)[C@H](O)CO.O=C([O-])CN(CCN(CC(=O)[O-])CC(=O)O)CCN(CC(=O)[O-])CC(=O)O.[Gd+3]` [Gd-[DTPA]-dimeglumine, Gd-DTPA-dimeglumine], in the data set on kidneys of mice (double dose 0.06 mmol Gd/kg), the “visualization of the proximal straight tubule of the kidney” value was “not visualized”. For the same compound, the “bright white band at the outer stripe of the outer medulla” value with kidneys of mice (high-resolution coronal images, dendrimers 0.03 mmol Gd/kg, Gd-[DTPA]-dimeglumine 0.03 or 0.06 mmol Gd/kg) is recorded as “not observed”. Moreover, in the data set on kidneys of mice (higher doses, e.g. 0.1 mmol Gd/kg), the “MRI signal from the renal pelvis region” value is listed as “loss of signal”.

Consider DAB-Am16-(Gd-1B4M)16 [DAB-G2], for which, in data set [1], the “cleared from the body within 15 min after injection” value (shortened to “cleared from the body within 15 min”) is reported as “Greater than 60 % ID” and the “excretion from the body, rank among conjugates” value (“excretion from the body” for short) is listed as “most rapidly excreted”.

Take DAB-Am-32-(Gd-1B4M)32 [DAB-G3]: in data set [1], the “cleared from the body within 15 min” value is on record as “Greater than 60 % ID” and the “excretion from the body” value was “most rapidly excreted”.

DAB-Am-64-(Gd-1B4M)64 [DAB-G4]: in data set [2], the “accumulation in the kidney vs PAMAM-G4D-(1B4M)64” value was “less” and the “accumulation in the liver vs PAMAM-G4D-(1B4M)64” value was “significantly more”.

Take PAMAM-G2D-(Gd-1B4M)16: in data set [1], the “cleared from the body within 15 min” value is listed as “Greater than 60 % ID” and the “excretion from the body” value is reported as “most rapidly excreted”.

For PAMAM-G4D-(Gd-1B4M)64, the “MRI signal intensity in the left ventricle of the heart” value in data set [3] is recorded as “highest”. The “combined width of the cortex and outer medulla in COX-2 knockout mice vs normal mice by enhanced MR imaging” value in the data set on COX-2 knock-out mice is “much smaller”. The “injected dose excreted during the first two days following administration” value in data set [4] was 20 % ID.

(Values after patent US6852842B2, “Methods for functional kidney imaging using small dendrimer contrast agents” (The United States of America as represented by the …, priority 2002, dated 2005).)
